# Measured values: the DeepSol protein solubility set
# Test: soluble on expression in E. coli; label from the status in PepcDB or PDB records
row,Sequence,soluble on expression in E. coli
1,MSLRFGIGYSATMGVRPNMEDVITFQTYPNDQHLFGLFDGHQGNVAAATSAICLHNELLQNAVNAPDDQLPAAITNCYTAVNQKLKMIGTRDGCTAISAFIRKNKCYTVGIGDSRIVLVKKNSSKRLTVDYKPTMRSEYERLRKCGLTVNSEGRIGRKLAVARTLGDFWCEGPGLYVPPDVSSFEINEEEDLALIIACDGVWDVIQDDDAAEIVRNSENAQDAATTLRNVAFALGSKDNISAMIVFFDSKEGHHHHHH,soluble
2,MSLRGESSGLMAYKAEDIYFTLFNGLHGSAHGHASTGGFTLQLQGDDLFSDSGRYSYVNKSERLQLKECASHNTMFIAENPHTLVSDTWGYDKLPTPLFQQIKELSVGFFAECGWLDKADQNPMIFERSFIYLKSINSVVIIDSFAGQKETEITSTYNLAPSINCQKEAHRFALTTNKHKYTLLFAGGQTQQSVAKGSEIYNQLNEHPRLSNKFCYKTGKEIQATVISPLEDIQITPIKVSQTGENEQFCQAKGFRIIAGSEKFDLFVMREDIVKGNKLLVSEYGQFFYGRLVLIDQKEAKIRIKEGHHHHHH,soluble
3,MSLRGIRLQQPAGLASLSSVALPDPGQPAAGQIRVRLHASSLNFHDLGIVSGQMPTADGRIPMSDGAGVVEAVGEAVSDFAVGDHVVSTFFPQWLDGEPLHAGFATTPGDGVDGYARSAVVAAAQAFTHAPRGYSHAEAATLTTAGVTAWRALVVNGRIKAGDTVLVLGTGGVSIFALQFAKAMGAMVIVTSSSDQKLETARTLGADHCINYRQHTEWAAQVLEITNGRGVDHVVEVGGPGTLAQSIKAARVGGHIALIGVLTGAAGPVPTAEMMGRQQRLQGLVVGSRRHQQELVRALDGLPLRPVIDRSFALEDIAEAFALQHAGGHLGKIVLEFEGHHHHHH,soluble
4,MSLRHDVILVLLDGLNHSVARDCMGHLQALCGAGRGQSYRLECELPSLSRPLYECILTGVPPIDSGILHNDVVRLSQEQSLFHYARAAGLSTAAAAYHWVSELYNRAPFDPARDRHTDDSALPIQRGHFYWSDHYPDSHLFADAESLRRRHAPNFMLVHSMNIDDAGHRHGLASPAYRNAARRADALLSEYLHQWLAAGYQVAITADHGMNEDRSHGGILEEEREVPLFVFGDAFSRDDLAQPLQTDLCGTLCEILGAAHDKPVCREEGHHHHHH,not soluble
5,MSLRILVNGLLPLDSGKTTFSLSIIRLFNQVGIRLFPFKPIAGHNAWYSFNTLIRSEELGILVGNDALKYYDETKYDIRRINPFAVLFVPIDLEKISYNVSLYNMIMEYGFPYLIRLSDCINGTDQYFVNSSADIYVPKSMLKFTRNLALKFNAKLYDKMREIIDASPQLVDNCTIDVFRNYENVIIESYNDSASPTYNSTNVDYVFTVSPTKAFLIKGQEFKKALSLFSIPPWNVRVSTLMKYLKIGKSFEIDVGERVAKDEILDILLKSEGHHHHHH,not soluble
6,MSLRITRLTVFHLDLPLAKPYWLSGGRLKFDRLDSTYLRIDTDEGVTGWGEGCPWGHSYLPAHGPGLRAGIATLAPHLLGLDPRSLDHVNRVMDLQLPGHSYVKSPIDMACWDILGQVAGLPLWQLLGGEAATPVPINSSISTGTPDQMLGLIAEAAAQGYRTHSAKIGGSDPAQDIARIEAISAGLPDGHRVTFDVNRAWTPAIAVEVLNSVRARDWIEQPCQTLDQCAHVARRVANPIMLDECLHEFSDHLAAWSRGACEGVKIKPNRVGGLTRARQIRDFGVSVGWQMHIEDVGGTALADTAALHLAASTPEANRLASWLGHAHLADDPIPGQGARNRDGLATPPSAPGLGVIPDPEALGRPVASYDEGHHHHHH,soluble
7,MSLRKFWHVGINVTDMDKSIDFYRRIGFEVVQDREVEDSNLARAFMVEGASKLRFAHLRLNDSPDEAMLDLIEWRDARSEGRAQSDLVHPGLCRFSILTDDIDAEYARLADDGVQFLHAPQTIMGPDGVKGWRLLFARDPDGTLFHFAELVGQAATEGHHHHHH,not soluble
8,MSLRKLLKKTLFSNIIILCLYLGILKCVNSHISNEIQKQNQTFDKENLESKNTQNLQKSKNPTSQLSKTILKEEFNFLPNDVEINWKGRVLVIGDIHGDLKSLITSLFLSGVINSNLDWIAKNTLLIQLGDVVDRGSHALQIYKLFNKLKSQAPSLGSKFVGLLGNHEVMNLCGQLHYVTDEDFQTYGGRDNRTFEWSKEGFVGKYLRTMKLAIRVNDSLYVHAGLLPKYAKLGLDKLDKLSNDLLEGDFCDFYSSLFFVEDGPLWTRDISLGEEEKACKLVDETLQILGLSRMVVGHTIQHDNRINIKCDNKLILADTGFSEAIYGKPCMLEILYHNDNPDPSNYKSFHPYSINELQVKSNPSKPNIKYIQVTSLFLDKTSTRDEGHHHHHH,soluble
9,MSLRKVFEESKIGNIKLKNRILRSATHESMADSEGKPTEDLIKKYMELAQGEVGAIITGYTGVMQNGKSPAKNMLMLDKDENITSFKNMVNEIHKYDVPIILQIAHCGRQTSEKVTGKPTVAPSPIRDKIYRGSVPHELTDVAINEIIEAFVNAIERAIKAGFDGVELHLAHGYLLSSFLSPHMNKRKDKWGGSTENRFRIVSEIMKRARQKFKNYPILAKINGYEASKDGIKLEEAIKISKALENSGINAIEVSCGIAEEGFVTIRGKVPFDMILKCDPTMKRIPEFLKPIVKHVGKLIVKSPEPHFLYNLNNAREIKNKVTIPVIVVGGIRKFSDIEDIIAKDCDFVSMSRPFIIQPSIVKTFKEGKEKESRCINCNYCLIGVETNELKCYYGKEGHHHHHH,soluble
10,MSLRKVRVGIWGFGAMGIGMANMILKKEGIEIVSVCSRSTSGKSMYDVLGIERGERPEVIINKNYEEVFREKSVDVVLLATDSFTKKAFDKIIFLLNRKINVISTAEQMAYPQADDADLAKKMDEVAKENGVSILGTGINPGFVLDLLVLALSGTCEEVTSIKAKRVNDLSPFGKSVMVEQGVGVTREEFIKGVEDKTIAGHVGFVESINMIADGLGWKLDKIEQTKEPIMTTVDRKSKYGEALAGNVAGCRQCGYGYVNGEVLIEMEHPQQIIPEAEGIKTGDYVSIKGIPNIDLQINPEIPGGVGTYAMIVNSIPLIINARPGLKTMLDIPVPRAIMGDIRNQIEVELEEEGHHHHHH,soluble
11,MSLRLFGTHIQAAIRPVIWLLLWQASSGFANQVRVEVEGDYDQLQENAEILLGEVQDRTADGLRRYASSAAAQVEEAVRALGYYNPTIRWQVNEQDEAPAELVLTIVPGEPVRVRSRQVDIQGPGADDPDLVQSLPERPREGDILNHGEYDGLRQAIQNRAGRLGYFDGEYETRKLKVDPDANAADILLTYRTGERYQLGEVTFLEGHGFDEQLLRQFVTTEPGEPFHADKVARLNRDLSNSGYFSGVDIDASPSQAEDRVIPVTIGLTPRPPRSVSAGVGFSTDVGPRFRGNWREHYINSMGHKRGADTELSELRQSVSGWYELPLDPPMTDSIRLGTGYQREHVEDVESERLTFGQQWNHQLDDGWMQVLSMRWEGERFRIGDGERGTSSLLLPGVSYSKLQADSPLDPSRGFRLQLDVTGAHRAVLSDADILHVNLLAKGLYTLADNHRFLARFNFGGVATNNFSDVPPSLRFFAGGDQSVRGYGYETLSPEDSDGVAVGGRYLIVGSAEYQYEFARNWRVAAFVDEGNAVNDVFDPLATGVGVGIRWVSPVGPLRLDVARGLNEELGGGWRIHFSMGPEEGHHHHHH,not soluble
12,MSLRPYQEKARLFLNGEMSATLFVELGIATSCRKGLKKGFFNQDDFFAYQCDEWGLYGVFDGHGPGGHLVANFVQWHLPNIIHEYMITSEPRVALHRAFVEVNSMLTDASEAQKFDSASSGSTASVVLHRRQERKLFLAHVGDSRVVLARRNHQGRLVADCVTKDHKPDDPVERARIERHGGEVRRPTGHIPHRVFLKGKNYPGLAMSRSIGDSMGHCAGVTSEPDISDIDLLEDRDEVVIMCTDGVWEFMTPDEVVDIVSRYSIYQADEAAQELSREAWKRWLEQDGHSVDDITVQIIHLFPPAEEKHPEGHHHHHH,soluble
13,MSLRRGIYHIENAGVPSAIDLKDGSSSDGTPIVGWQFTPDTINWHQLWLAEPIPNVADTFTLCNLFSGTYMDLYNGSSEAGTAVNGWQGTAFTTNPHQLWTIKKSSDGTSYKIQNYGSKTFVDLVNGDSSDGAKIAGWTGTWDEGNPHQKWYFNRMSVSSAEAQAAIARNPHIHGTYRGYILDGEYLVLPNATFTQIWKDSGLPGSKWREQIYDCDDFAIAMKAAVGKWGADSWKANGFAIFCGVMLGVNKAGDAAHAYNFTLTKDHADIVFFEPQNGGYLNDIGYDSYMAFY,soluble
14,MSLRSVVSFNEGWSFHEGFGQRLLENFDAAKPVSLPHTAVELPFNYFDEKSYQRAFTYQKVLRWLPEFEGREVSLVFDAAMADSVVYLNGEEITAHKDGYTPFEARLTGKLLKGENLVTVKIDGSENPAIPPFGGRIDYLTYAGIYRDVWLKVTDPVSIRNLKIETADVLAPHKSASIRVDLANPEGRSFSATLTAALKQADGTVIATAATETIGNRTTLSLGGLTGITLWDITNPTLYEVTVELRTEHGSDRLSTRFGFRTAEFTPEGFLLNGKPLKLRGLNRHQAFPYVGYAAGRSAQERDADIMKSVLKCNIVRTSHYPQSKWFLDRCDAIGLLVFEEIPGWQHIGDADWQKESIENVRRMIERDWNHPSIIIWGVRINESQDSHDFYAETNRLARELDSTRQTGGVRYITESELLEDVYTMNDFILGNEELPGANRPRTVLRGQQENTGLSRKVPYLITEFNGHMHPTKIYDQEQRQAEHVRRHLEVLNAAYGDPDISGAIGWCMFDYNTHKDFGSGDRVCYHGVMDMFREPKFAAYAYISQCEPSEEIVMKPVTFWARGERNIGGVLPLIILTNCDEVELQYGALSKRVGPDRENYPHLPHPPVVLDHRHFTADELGTWGLEWIDGALTGFIAGEAVVSLNLAADPLPTTLEMVADSSTLKTRERDSTRVIIRALDQCGQRLPFMNDSISLKVHGPARIVGPTNVPLQGGTSGFWLEATGLVGEITVEAVSSRFAPVTLNVTAVAEGHHHHHH,soluble
15,MSLRTSASLAGSLAYGMADFLGRSEHLSIIDMIVPRMRQDNVETVVGMFDGQPSSTGGSRVAKFLHENFLHTFSAELKRLRRDEQETPLDAFRRTFLTLNRNMAFACYKSIDQDVRLFQEDSSDQKKVRLNKEDLQSGGVATVLYLNNTDLYAANIGDAQAILVKSDGSMRYLTRNHDPAEAGERARIRAAGGFVSRNGRLNDYLPVSRSFGYFNLMPAVIAAPHTMHVSLTEQDEMIILASKELWDYVTPDLVVDVTRAERRDLMVAAQKIRDLALSFGANNKLMVMILGVGDLREGHHHHHH,soluble
16,MSLRVLGIETSCDETGIAIYDDEKGLLANQLYSQVKLHADYGGVVPELASRDHVRKTVPLIQAALKESGLTAKDIDAVAYTAGPGLVGALLVGATVGRSLAFAWDVPAIPVHHMEGHLLAPMLEDNPPEFPFVALLVCGGHTQLISVTGIGQYELLGESIDDAAGEAFDKTAKLLGLDYPGGPLLSKMAAQGTAGRFVFPRPMTDRPGLDFSFSGLKTFAANTIRDNGTDDQTRADIARAFEDAVVDTLMIKCKRALDQTGFKRLVMAGGVSANRTLRAKLAEMMKKRRGEVFYARPEFCTDNGAMIAYAGMVRFKAGATADLGVSVRPRWPLAELPAEGHHHHHH,soluble
17,MSLRVRQIDRREWLLAQTATECQRHGREATLEYPTRQGMWVRLSDAEKRWSAWIKPGDWLEHVSPALAGAAVSAGAEHLVVPWLAATERPFELPVPHLSCRRLCVENPVPGSALPEGKLLHIMSDRGGLWFEHLPELPAVGGGRPKMLRWPLRFVIGSSDTQRSLLGRIGIGDVLLIRTSRAEVYCYAKKLGHFNRVEGGIIVETLDIQHIEEENNTTETAETLPGLNQLPVKLEFVLYRKNVTLAELEAMGQQQLLSLPTNAELNVEIMANGVLLGNGELVQMNDTLGVEIHEWLSESGNGE,not soluble
